Assays:
[1] = molecular target: neural retina leucine zipper (NRL), V5-tagged (UniProt P54845); experiment: co-immunoprecipitation, band densitometry normalized to input; details: COS-1 cells cotransfected; IP goat anti-V5; detection mouse anti-Xpress; parent: est. 100; read off a plot
[2] = molecular target: cone-rod homeobox (CRX), V5-tagged (UniProt O43186); experiment: as above; details: COS-1 cells cotransfected; detection mouse anti-Xpress; parent: est. 100; read off a plot
Sequence of cone-rod homeobox (CRX), V5-tagged (O43186 whole entry): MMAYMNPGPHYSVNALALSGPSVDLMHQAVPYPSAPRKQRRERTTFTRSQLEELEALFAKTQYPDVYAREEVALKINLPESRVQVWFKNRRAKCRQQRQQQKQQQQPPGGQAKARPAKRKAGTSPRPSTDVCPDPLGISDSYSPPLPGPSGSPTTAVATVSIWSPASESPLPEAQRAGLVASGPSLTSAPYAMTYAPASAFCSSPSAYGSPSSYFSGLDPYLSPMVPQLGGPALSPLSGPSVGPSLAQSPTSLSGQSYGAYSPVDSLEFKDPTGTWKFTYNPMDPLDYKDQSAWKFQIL

Sequence of neural retina leucine zipper (NRL), V5-tagged (P54845 whole entry): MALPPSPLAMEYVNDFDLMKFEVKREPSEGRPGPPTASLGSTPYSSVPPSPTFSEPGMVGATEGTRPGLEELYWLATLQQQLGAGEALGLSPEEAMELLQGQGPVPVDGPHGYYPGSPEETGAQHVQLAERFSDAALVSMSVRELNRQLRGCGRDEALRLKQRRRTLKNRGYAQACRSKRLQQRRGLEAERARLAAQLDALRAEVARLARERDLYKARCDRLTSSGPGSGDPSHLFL
Sequence of photoreceptor-specific nuclear receptor NR2E3 (nuclear receptor subfamily 2 group E member 3), wild type, Q9Y5X4-1 p.R76Q (Q9Y5X4 whole entry R76Q): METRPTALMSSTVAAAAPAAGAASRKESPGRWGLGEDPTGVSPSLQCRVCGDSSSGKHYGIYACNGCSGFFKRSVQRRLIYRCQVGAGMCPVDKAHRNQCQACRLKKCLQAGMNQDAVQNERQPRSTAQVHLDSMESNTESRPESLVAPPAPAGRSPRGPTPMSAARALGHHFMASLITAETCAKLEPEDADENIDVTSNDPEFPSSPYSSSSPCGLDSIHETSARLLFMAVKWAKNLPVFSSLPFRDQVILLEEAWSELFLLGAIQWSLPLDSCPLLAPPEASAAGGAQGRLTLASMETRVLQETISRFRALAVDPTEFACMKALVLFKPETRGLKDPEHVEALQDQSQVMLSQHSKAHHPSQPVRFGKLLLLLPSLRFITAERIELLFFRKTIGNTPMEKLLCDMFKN
Sequence of photoreceptor-specific nuclear receptor NR2E3 (nuclear receptor subfamily 2 group E member 3), wild type, Q9Y5X4-1 p.R97H (Q9Y5X4 whole entry R97H): as the sequence (Q9Y5X4 whole entry R76Q) above, with Q76R, R97H counted along it
Sequence of photoreceptor-specific nuclear receptor NR2E3 (nuclear receptor subfamily 2 group E member 3), wild type, Q9Y5X4-1 p.V302I (Q9Y5X4 whole entry V302I): as the sequence (Q9Y5X4 whole entry R76Q) above, with Q76R, V302I counted along it
Sequence of photoreceptor-specific nuclear receptor NR2E3 (nuclear receptor subfamily 2 group E member 3), wild type, Q9Y5X4-1 p.R104Q (Q9Y5X4 whole entry R104Q): as the sequence (Q9Y5X4 whole entry R76Q) above, with Q76R, R104Q counted along it
Sequence of photoreceptor-specific nuclear receptor NR2E3 (nuclear receptor subfamily 2 group E member 3), wild type, Q9Y5X4-1 p.R309G (Q9Y5X4 whole entry R309G): as the sequence (Q9Y5X4 whole entry R76Q) above, with Q76R, R309G counted along it
Sequence of photoreceptor-specific nuclear receptor NR2E3 (nuclear receptor subfamily 2 group E member 3), wild type, Q9Y5X4-1 p.A256E (Q9Y5X4 whole entry A256E): as the sequence (Q9Y5X4 whole entry R76Q) above, with Q76R, A256E counted along it
Sequence of photoreceptor-specific nuclear receptor NR2E3 (nuclear receptor subfamily 2 group E member 3), wild type, Q9Y5X4-1 p.L336P (Q9Y5X4 whole entry L336P): as the sequence (Q9Y5X4 whole entry R76Q) above, with Q76R, L336P counted along it
Sequence of photoreceptor-specific nuclear receptor NR2E3 (nuclear receptor subfamily 2 group E member 3), wild type, Q9Y5X4-1 p.G56R (Q9Y5X4 whole entry G56R): as the sequence (Q9Y5X4 whole entry R76Q) above, with G56R, Q76R counted along it
Sequence of photoreceptor-specific nuclear receptor NR2E3 (nuclear receptor subfamily 2 group E member 3), wild type, Q9Y5X4-1 p.N65_C67del (Q9Y5X4 other isoform, or with tags, fused parts or gaps p.N65_C67del): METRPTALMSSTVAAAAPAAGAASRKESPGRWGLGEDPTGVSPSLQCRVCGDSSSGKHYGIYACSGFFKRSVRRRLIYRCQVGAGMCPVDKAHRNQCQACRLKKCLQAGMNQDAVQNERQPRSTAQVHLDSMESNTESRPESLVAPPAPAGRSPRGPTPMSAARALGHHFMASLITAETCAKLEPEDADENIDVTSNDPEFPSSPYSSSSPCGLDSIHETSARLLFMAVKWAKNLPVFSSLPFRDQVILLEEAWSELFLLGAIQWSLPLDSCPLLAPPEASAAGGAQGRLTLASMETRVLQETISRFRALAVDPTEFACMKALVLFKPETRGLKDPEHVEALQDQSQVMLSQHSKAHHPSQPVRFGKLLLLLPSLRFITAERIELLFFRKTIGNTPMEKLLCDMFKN
Sequence of photoreceptor-specific nuclear receptor NR2E3 (nuclear receptor subfamily 2 group E member 3), wild type, Q9Y5X4-1 p.R311Q (Q9Y5X4 whole entry R311Q): as the sequence (Q9Y5X4 whole entry R76Q) above, with Q76R, R311Q counted along it

percent of parent [1]	percent of parent [2]	Substance
98%	88%	photoreceptor-specific nuclear receptor NR2E3 (nuclear receptor subfamily 2 group E member 3), wild type, Q9Y5X4-1 p.R76W
110%	99%	photoreceptor-specific nuclear receptor NR2E3 (nuclear receptor subfamily 2 group E member 3), wild type, Q9Y5X4-1 p.G88V
110%	43%	photoreceptor-specific nuclear receptor NR2E3 (nuclear receptor subfamily 2 group E member 3), wild type, Q9Y5X4-1 p.R97H
37%	60%	photoreceptor-specific nuclear receptor NR2E3 (nuclear receptor subfamily 2 group E member 3), wild type, Q9Y5X4-1 p.R385P
69%	81%	photoreceptor-specific nuclear receptor NR2E3 (nuclear receptor subfamily 2 group E member 3), wild type, Q9Y5X4-1 p.R334G
10%	32%	photoreceptor-specific nuclear receptor NR2E3 (nuclear receptor subfamily 2 group E member 3), wild type, Q9Y5X4-1 p.L336P
110%	48%	photoreceptor-specific nuclear receptor NR2E3 (nuclear receptor subfamily 2 group E member 3), wild type, Q9Y5X4-1 p.G56R
16%	24%	photoreceptor-specific nuclear receptor NR2E3 (nuclear receptor subfamily 2 group E member 3), wild type, Q9Y5X4-1 p.L263P
62%	55%	photoreceptor-specific nuclear receptor NR2E3 (nuclear receptor subfamily 2 group E member 3), wild type, Q9Y5X4-1 p.A256E
87%	87%	photoreceptor-specific nuclear receptor NR2E3 (nuclear receptor subfamily 2 group E member 3), wild type, Q9Y5X4-1 p.V232I
74%	44%	photoreceptor-specific nuclear receptor NR2E3 (nuclear receptor subfamily 2 group E member 3), wild type, Q9Y5X4-1 p.R311Q
10%	30%	photoreceptor-specific nuclear receptor NR2E3 (nuclear receptor subfamily 2 group E member 3), wild type, Q9Y5X4-1 p.L353V
120%	87%	photoreceptor-specific nuclear receptor NR2E3 (nuclear receptor subfamily 2 group E member 3), wild type, Q9Y5X4-1 p.E121K
58%	95%	photoreceptor-specific nuclear receptor NR2E3 (nuclear receptor subfamily 2 group E member 3), wild type, Q9Y5X4-1 p.W234S
56%	86%	photoreceptor-specific nuclear receptor NR2E3 (nuclear receptor subfamily 2 group E member 3), wild type, Q9Y5X4-1 p.V302I
110%	95%	photoreceptor-specific nuclear receptor NR2E3 (nuclear receptor subfamily 2 group E member 3), wild type, Q9Y5X4-1 p.R76Q
37%	55%	photoreceptor-specific nuclear receptor NR2E3 (nuclear receptor subfamily 2 group E member 3), wild type, Q9Y5X4-1 p.R309G
100%	84%	photoreceptor-specific nuclear receptor NR2E3 (nuclear receptor subfamily 2 group E member 3), wild type, Q9Y5X4-1 p.N65_C67del
61%	76%	photoreceptor-specific nuclear receptor NR2E3 (nuclear receptor subfamily 2 group E member 3), wild type, Q9Y5X4-1 p.M407K
100%	42%	photoreceptor-specific nuclear receptor NR2E3 (nuclear receptor subfamily 2 group E member 3), wild type, Q9Y5X4-1 p.R104Q

— article PMC2773741
